According to article PMC7895943 (Communications Biology, 2021):

Molecular target: purified recombinant human α-synuclein (N-terminal histidine tagged) (human, UniProt P37840 1-140)
Test: SPR; Biacore 3000; about 1500 RU of α-synuclein amine-coupled to a CM5 chip; peptides in two-fold dilutions (0.20-12.50 µM, in duplicate) injected 3 min at 30 µl/min, then 3 min dissociation; HBS pH 7.4 (10 mM HEPES, 150 mM NaCl, 3 mM EDTA, 0.005% P20); double-referenced; report points 20 s into dissociation (200 s)
Conditions: both partners purified

B1: Tat-βsyn-degron peptide (peptide)
peptide: YGRKKRRQRRRRTKSGVYLVGRRRG
notes: Tat plasma membrane transduction domain (HIV-1 Tat stretch); degron, proteasomal targeting signal; also called α-synuclein knockdown peptide; α-synuclein targeting peptide; source: synthetic peptide (GL Biochem, Shanghai)
B1: binds.
